Assay results reported in patent US20250019439A1 (Adimab, published 2025).

How the values were obtained:
ADI-22523 Fab = molecular target: T1, ADI-22523 Fab; test: BLI; tip anti-ID IgG, solution ADI-22523 Fab
T1 construct: anti-CD3 Fab by papain digestion of the IgG
Procedure, shortened: (§1)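 Anti-ID IgG was captured on AHC biosensors, equilibrated in assay buffer for 30 min, then baselined for 60 s. KD = koff/kon came from a 1:1 binding fit.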

ADI-48592 = molecular target: T2, ADI-48592; test: SPR Carterra avidity, yeast anti-ID
T2 construct: pH-dependent anti-CD3 antibody made in CHO cells
T2 sequence (VH, as listed by the source, chain 1 of 2): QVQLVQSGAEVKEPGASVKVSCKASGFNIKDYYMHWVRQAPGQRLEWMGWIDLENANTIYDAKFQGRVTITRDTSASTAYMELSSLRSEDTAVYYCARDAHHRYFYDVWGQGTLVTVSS
T2 sequence (VL, as listed by the source, chain 2 of 2): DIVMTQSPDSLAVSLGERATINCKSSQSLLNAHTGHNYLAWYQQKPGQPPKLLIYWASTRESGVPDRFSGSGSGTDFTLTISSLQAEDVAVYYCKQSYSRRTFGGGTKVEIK
Procedure, shortened: (§2)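 Fitted with a 1:1 binding model after double referencing: Carterra LSA kinetics at 25° C in HBSTE, with anti-idiotype analytes binding anti-CD3 antibodies (100 nM) captured via anti-human Fc on HC30M chip. Dissociation followed 300 s.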

ADI-26916 IgG = molecular target: T3, ADI-26916 IgG; test: SPR Carterra avidity, yeast anti-ID
T3 construct: anti-CD3 IgG
T3 sequence (VH, as listed by the source, chain 1 of 2): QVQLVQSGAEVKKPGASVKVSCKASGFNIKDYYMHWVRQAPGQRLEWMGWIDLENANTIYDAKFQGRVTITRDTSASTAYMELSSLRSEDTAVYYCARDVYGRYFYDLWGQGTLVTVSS
T3 sequence (VL, as listed by the source, chain 2 of 2): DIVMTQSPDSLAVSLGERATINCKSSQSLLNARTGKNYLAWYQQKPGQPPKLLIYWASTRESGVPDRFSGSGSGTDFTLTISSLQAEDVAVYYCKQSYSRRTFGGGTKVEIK
Procedure, shortened: as §2

CTL-62223 = molecular target: T4, CTL-62223; test: SPR Carterra avidity, yeast anti-ID
T4 construct: also called mosunetuzumab
Procedure, shortened: as §2

ADI-76360 = molecular target: T5, ADI-76360; test: SPR Carterra avidity, yeast anti-ID
T5 construct: anti-CD3 antibody made in CHO cells, captured by anti-human Fc
T5 sequence (VH, as listed by the source, chain 1 of 2): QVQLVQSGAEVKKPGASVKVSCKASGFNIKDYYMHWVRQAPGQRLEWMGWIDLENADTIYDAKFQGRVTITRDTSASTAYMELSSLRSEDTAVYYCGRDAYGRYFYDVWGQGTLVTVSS
T5 sequence (VL, as listed by the source, chain 2 of 2): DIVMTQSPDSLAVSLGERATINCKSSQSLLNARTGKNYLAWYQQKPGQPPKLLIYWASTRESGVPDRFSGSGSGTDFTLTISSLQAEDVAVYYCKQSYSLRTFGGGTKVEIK
Procedure, shortened: as §2

ADI-26906 IgG = molecular target: T6, ADI-26906 IgG; test: SPR Carterra avidity, yeast anti-ID
T6 construct: anti-CD3 IgG
Procedure, shortened: as §2

ADI-70326 = molecular target: T7, ADI-70326; test: SPR Carterra avidity, yeast anti-ID
T7 construct: anti-CD3 antibody made in CHO cells, captured by anti-human Fc
Procedure, shortened: as §2

ADI-74965 = molecular target: T8, ADI-74965; test: SPR Carterra avidity, yeast anti-ID
T8 construct: pH-dependent anti-CD3 antibody made in CHO cells
T8 sequence (VH, as listed by the source, chain 1 of 2): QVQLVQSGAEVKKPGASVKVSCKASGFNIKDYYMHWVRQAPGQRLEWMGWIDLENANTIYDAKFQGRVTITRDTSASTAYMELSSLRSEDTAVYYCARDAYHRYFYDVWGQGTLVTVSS
T8 sequence (VL, as listed by the source, chain 2 of 2): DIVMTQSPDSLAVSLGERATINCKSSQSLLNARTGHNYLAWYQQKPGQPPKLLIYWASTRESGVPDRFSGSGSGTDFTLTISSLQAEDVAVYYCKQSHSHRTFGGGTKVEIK
Procedure, shortened: as §2

ADI-50024 = molecular target: T9, ADI-50024; test: SPR Carterra avidity, yeast anti-ID
T9 construct: anti-CD3 antibody made in CHO cells, captured by anti-human Fc
Procedure, shortened: as §2

ADI-48650 = molecular target: T10, ADI-48650; test: SPR Carterra avidity, yeast anti-ID
T10 construct: pH-dependent anti-CD3 antibody made in CHO cells
T10 sequence (VH, as listed by the source, chain 1 of 2): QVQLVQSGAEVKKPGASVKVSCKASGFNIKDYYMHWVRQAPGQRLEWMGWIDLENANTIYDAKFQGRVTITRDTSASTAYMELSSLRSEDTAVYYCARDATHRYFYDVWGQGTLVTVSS
T10 sequence (VL, as listed by the source, chain 2 of 2): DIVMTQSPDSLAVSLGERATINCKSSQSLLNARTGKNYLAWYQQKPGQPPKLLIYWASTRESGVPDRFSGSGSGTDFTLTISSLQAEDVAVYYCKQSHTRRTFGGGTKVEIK
Procedure, shortened: as §2

ADI-76358 = molecular target: T11, ADI-76358; test: SPR Carterra avidity, yeast anti-ID
T11 construct: anti-CD3 antibody made in CHO cells, captured by anti-human Fc
T11 sequence (VH, as listed by the source, chain 1 of 2): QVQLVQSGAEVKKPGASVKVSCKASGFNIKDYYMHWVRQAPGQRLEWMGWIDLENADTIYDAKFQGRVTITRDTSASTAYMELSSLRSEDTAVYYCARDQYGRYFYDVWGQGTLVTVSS
Procedure, shortened: as §2

ADI-26919 = molecular target: T12, ADI-26919; test: SPR Carterra avidity, yeast anti-ID
T12 construct: anti-CD3 antibody made in CHO cells, captured by anti-human Fc
Procedure, shortened: as §2

ADI-48576 = molecular target: T13, ADI-48576; test: SPR Carterra avidity, yeast anti-ID
T13 construct: pH-dependent anti-CD3 antibody made in CHO cells
T13 sequence (VH, as listed by the source, chain 1 of 2): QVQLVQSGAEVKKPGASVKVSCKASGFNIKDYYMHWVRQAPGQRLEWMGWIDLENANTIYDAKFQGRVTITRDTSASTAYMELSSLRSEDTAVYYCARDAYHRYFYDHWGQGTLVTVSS
T13 sequence (VL, as listed by the source, chain 2 of 2): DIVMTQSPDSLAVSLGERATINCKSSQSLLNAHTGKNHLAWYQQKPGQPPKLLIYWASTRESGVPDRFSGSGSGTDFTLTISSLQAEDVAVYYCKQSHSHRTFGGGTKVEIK
Procedure, shortened: as §2

ADI-74968 = molecular target: T14, ADI-74968; test: SPR Carterra avidity, yeast anti-ID
T14 construct: pH-dependent anti-CD3 antibody made in CHO cells
T14 sequence (VL, as listed by the source, chain 2 of 2): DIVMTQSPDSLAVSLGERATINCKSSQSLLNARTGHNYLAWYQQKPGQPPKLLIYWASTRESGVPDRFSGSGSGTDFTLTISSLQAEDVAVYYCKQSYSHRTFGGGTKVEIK
Procedure, shortened: as §2

ADI-70330 = molecular target: T15, ADI-70330; test: SPR Carterra avidity, yeast anti-ID
T15 construct: anti-CD3 antibody made in CHO cells, captured by anti-human Fc
Procedure, shortened: as §2

ADI-76361 = molecular target: T16, ADI-76361; test: SPR Carterra avidity, yeast anti-ID
T16 construct: anti-CD3 antibody made in CHO cells, captured by anti-human Fc
T16 sequence (VH, as listed by the source, chain 1 of 2): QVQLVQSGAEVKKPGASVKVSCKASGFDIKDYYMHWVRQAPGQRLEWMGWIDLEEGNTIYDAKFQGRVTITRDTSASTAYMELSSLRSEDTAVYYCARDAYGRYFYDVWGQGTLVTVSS
Procedure, shortened: as §2

ADI-76357 = molecular target: T17, ADI-76357; test: SPR Carterra avidity, yeast anti-ID
T17 construct: anti-CD3 antibody made in CHO cells, captured by anti-human Fc
Procedure, shortened: as §2

ADI-70327 = molecular target: T18, ADI-70327; test: SPR Carterra avidity, yeast anti-ID
T18 construct: anti-CD3 antibody made in CHO cells, captured by anti-human Fc
Procedure, shortened: as §2

ADI-48587 = molecular target: T19, ADI-48587; test: SPR Carterra avidity, yeast anti-ID
T19 construct: pH-dependent anti-CD3 antibody made in CHO cells
Procedure, shortened: as §2

ADI-26913 IgG = molecular target: T20, ADI-26913 IgG; test: SPR Carterra avidity, yeast anti-ID, *koff limit
T20 construct: anti-CD3 IgG
T20 sequence (VH, as listed by the source limits assumed, chain 1 of 2): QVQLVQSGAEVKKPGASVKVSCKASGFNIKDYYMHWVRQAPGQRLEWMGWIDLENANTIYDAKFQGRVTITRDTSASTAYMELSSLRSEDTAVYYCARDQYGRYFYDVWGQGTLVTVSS
Procedure, shortened: as §2

ADI-76362 = molecular target: T21, ADI-76362; test: SPR Carterra avidity, yeast anti-ID, *koff limit
T21 construct: anti-CD3 antibody made in CHO cells, captured by anti-human Fc
Procedure, shortened: as §2

ADI-26920 IgG = molecular target: T22, ADI-26920 IgG; test: SPR Carterra avidity, yeast anti-ID, *koff limit
T22 construct: anti-CD3 IgG
T22 sequence (VH, as listed by the source limits assumed, chain 1 of 2): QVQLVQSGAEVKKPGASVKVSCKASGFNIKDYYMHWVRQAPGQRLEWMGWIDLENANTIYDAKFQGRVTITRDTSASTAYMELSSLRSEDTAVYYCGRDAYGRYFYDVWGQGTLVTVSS
Procedure, shortened: as §2

ADI-76359 = molecular target: T23, ADI-76359; test: SPR Carterra avidity, yeast anti-ID, *koff limit
T23 construct: anti-CD3 antibody made in CHO cells, captured by anti-human Fc
T23 sequence (VH, as listed by the source, chain 1 of 2): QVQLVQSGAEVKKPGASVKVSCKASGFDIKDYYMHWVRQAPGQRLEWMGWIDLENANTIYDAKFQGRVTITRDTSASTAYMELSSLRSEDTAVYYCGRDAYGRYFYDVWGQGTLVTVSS
Procedure, shortened: as §2

ADI-26924 = molecular target: T24, ADI-26924; test: SPR Carterra avidity, yeast anti-ID, *koff limit
T24 construct: anti-CD3 antibody made in CHO cells, captured by anti-human Fc
T24 sequence (VH, as listed by the source, chain 1 of 2): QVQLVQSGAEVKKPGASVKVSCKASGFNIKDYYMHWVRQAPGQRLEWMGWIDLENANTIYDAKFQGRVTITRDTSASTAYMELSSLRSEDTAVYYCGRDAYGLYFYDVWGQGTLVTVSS
Procedure, shortened: as §2

ADI-26909 = molecular target: T25, ADI-26909; test: SPR Carterra avidity, yeast anti-ID, *koff limit
T25 construct: anti-CD3 antibody made in CHO cells, captured by anti-human Fc
Procedure, shortened: as §2

ADI-26921 IgG = molecular target: T26, ADI-26921 IgG; test: SPR Carterra avidity, yeast anti-ID, *koff limit
T26 construct: anti-CD3 IgG
T26 sequence (VH, as listed by the source limits assumed, chain 1 of 2): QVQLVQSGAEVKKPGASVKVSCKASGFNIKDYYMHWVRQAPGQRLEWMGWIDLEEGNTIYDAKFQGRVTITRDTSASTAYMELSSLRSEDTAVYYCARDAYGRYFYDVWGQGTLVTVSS
Procedure, shortened: as §2

ADI-67445 = molecular target: T27, ADI-67445; test: SPR Carterra avidity, yeast anti-ID, *koff limit
T27 construct: anti-CD3 antibody made in CHO cells, captured by anti-human Fc
T27 sequence (VH, as listed by the source limits assumed, chain 1 of 2): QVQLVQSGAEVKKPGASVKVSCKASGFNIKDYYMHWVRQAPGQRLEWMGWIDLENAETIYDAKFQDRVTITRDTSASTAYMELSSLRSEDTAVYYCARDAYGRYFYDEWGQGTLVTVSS
Procedure, shortened: as §2

ADI-67447 = molecular target: T28, ADI-67447; test: SPR Carterra avidity, yeast anti-ID, *koff limit
T28 construct: anti-CD3 antibody made in CHO cells, captured by anti-human Fc
T28 sequence (VH, as listed by the source limits assumed, chain 1 of 2): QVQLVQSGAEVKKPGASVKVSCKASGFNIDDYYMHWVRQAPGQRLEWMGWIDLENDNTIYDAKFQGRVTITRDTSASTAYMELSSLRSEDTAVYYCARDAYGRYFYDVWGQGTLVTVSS
Procedure, shortened: as §2

ADI-74967 = molecular target: T29, ADI-74967; test: SPR Carterra avidity, yeast anti-ID, *koff limit
T29 construct: pH-dependent anti-CD3 antibody made in CHO cells
Procedure, shortened: as §2

ADI-26943 = molecular target: T30, ADI-26943; test: SPR Carterra avidity, yeast anti-ID, *koff limit
T30 construct: anti-CD3 antibody made in CHO cells, captured by anti-human Fc
T30 sequence (VH, as listed by the source, chain 1 of 2): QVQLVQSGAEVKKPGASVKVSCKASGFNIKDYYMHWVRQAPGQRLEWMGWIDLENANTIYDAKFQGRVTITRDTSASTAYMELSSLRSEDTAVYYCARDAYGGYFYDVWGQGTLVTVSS
T30 sequence (VL, as listed by the source, chain 2 of 2): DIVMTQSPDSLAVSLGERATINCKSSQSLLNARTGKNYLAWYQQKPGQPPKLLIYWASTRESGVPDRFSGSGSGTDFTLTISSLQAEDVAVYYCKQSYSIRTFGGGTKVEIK
Procedure, shortened: as §2

ADI-74966 = molecular target: T31, ADI-74966; test: SPR Carterra avidity, yeast anti-ID, *koff limit
T31 construct: pH-dependent anti-CD3 antibody made in CHO cells
Procedure, shortened: as §2

ADI-67450 = molecular target: T32, ADI-67450; test: SPR Carterra avidity, yeast anti-ID, *koff limit
T32 construct: anti-CD3 antibody made in CHO cells, captured by anti-human Fc
T32 sequence (VH, as listed by the source limits assumed, chain 1 of 2): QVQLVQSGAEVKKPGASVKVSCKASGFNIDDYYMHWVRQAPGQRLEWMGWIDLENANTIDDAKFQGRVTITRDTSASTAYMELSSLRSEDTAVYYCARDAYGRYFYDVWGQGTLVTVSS
Procedure, shortened: as §2

ADI-22523 IgG = molecular target: T33, ADI-22523 IgG; test: BLI; tip anti-ID IgG, solution ADI-22523 IgG
T33 construct: anti-CD3 IgG
Procedure, shortened: as §1

- Kd (ADI-22523 Fab): 9.69 nM
- binding result (ADI-48592): binds
- Kd (ADI-26916 IgG): 64 nM
- Kd (CTL-62223): 46 nM
- Kd (ADI-76360): 57 nM
- Kd (ADI-26906 IgG): 20 nM
- Kd (ADI-70326): 42 nM
- Kd (ADI-74965): 34 nM
- Kd (ADI-50024): 19 nM
- Kd (ADI-48650): 110 nM
- Kd (ADI-76358): 29 nM
- Kd (ADI-26919): 33 nM
- binding result (ADI-48576): binds
- Kd (ADI-74968): 29 nM
- Kd (ADI-70330): 45 nM
- Kd (ADI-76361): 21 nM
- Kd (ADI-76357): 17 nM
- Kd (ADI-70327): 160 nM
- Kd (ADI-48587): 29 nM
- Kd (ADI-26913 IgG): 16 nM
- Kd (ADI-76362): 17 nM
- Kd (ADI-26920 IgG): 10 nM
- Kd (ADI-76359): 9.5 nM
- Kd (ADI-26924): 16 nM
- Kd (ADI-26909): 12 nM
- Kd (ADI-26921 IgG): 17 nM
- Kd (ADI-67445): 27 nM
- Kd (ADI-67447): 12 nM
- Kd (ADI-74967): 18 nM
- Kd (ADI-26943): 22 nM
- Kd (ADI-74966): 15 nM
- Kd (ADI-67450): 27 nM
- Kd (ADI-22523 IgG): 0.57 nM
B1: ADI-34138 (antibody, V domains shown)
VH: QVQLVQSGAEVKKPGSSVKVSCKASGGTFSSYAISWVRQAPGQGLEWMGGIIPIFGTANYAQKFQGRVTITADESTSTAYMELSSLRSEDTAVYYCARGAPNYYGSGGYDDGWFDPWGQGTLVTVSS
VL: EIVMTQSPGTLSLSPGERATLSCRASQSVSSSYLAWYQQKPGQAPRLLIYGASNRATGIPDRFSGSGSGTDFTLTISRLEPEDFAVYYCQQAHTALWTFGGGTKVEIK
notes: anti-ID IgG
